Assay [1] deals with human Fas (human) (UniProt P25445). In words: cell-based or functional assay.
Assay [2] concerns the target human DR5 (death receptor 5) (human) (UniProt O14763). Description: cell-based or functional assay.

Chain of human Fas (human) (P25445 26-335): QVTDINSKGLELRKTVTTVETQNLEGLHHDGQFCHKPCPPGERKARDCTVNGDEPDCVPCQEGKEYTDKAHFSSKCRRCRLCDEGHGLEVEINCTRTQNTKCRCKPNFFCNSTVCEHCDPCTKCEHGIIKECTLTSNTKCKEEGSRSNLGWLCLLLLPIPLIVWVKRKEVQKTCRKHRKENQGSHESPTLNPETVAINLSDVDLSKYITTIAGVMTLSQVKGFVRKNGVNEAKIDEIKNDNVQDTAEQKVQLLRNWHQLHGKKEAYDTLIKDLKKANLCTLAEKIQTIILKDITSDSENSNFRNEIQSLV

Take Mouse Anti-hFas Antibody (DX2): in assay [1], the cell viability at 500 or 5000 ng/ml, WR19L12a cells, immunoliposome of Example 40 (% cell viability) was less than 20.

In assay [2], Mouse Anti-hDR5 Antibody (MAB6311) gave an EC50 (50% cell viability), Jurkat cells, immunoliposome of Example 38 of 0.075 ng/mL; an EC50 (50% cell viability), Jurkat cells, immunoliposome of Example 39 of 0.083 ng/mL; an EC50 (50% cell viability), Jurkat cells, secondary antibody-cross-linked MAB6311 of 2.39 ng/mL; an EC50 Ab/IL, Jurkat cells, cross-linked MAB6311 vs immunoliposome of Example 38 of 31.9. In assay [2], the EC50 Ab/IL, Jurkat cells, cross-linked MAB6311 vs immunoliposome of Example 39 worked out at 28.8; the cell viability at 0.1 ng/ml, Jurkat cells, immunoliposome of Example 38 (% cell viability) was less than 40; the cell viability at 0.1 ng/ml, Jurkat cells, immunoliposome of Example 39 (% cell viability) is less than 40; the cell viability at 10 or 1000 ng/ml, Jurkat cells, immunoliposome of Example 38 (% cell viability) was less than 5. The substance also came in with a cell viability at 10 or 1000 ng/ml, Jurkat cells, immunoliposome of Example 39 (% cell viability) in assay [2] of less than 5.

In assay [2], Mouse Anti-hDR5 Antibody (MAB631) returned an EC50 (50% cell viability), Jurkat cells, immunoliposome of Example 36 of 0.069 ng/mL; an EC50 (50% cell viability), Jurkat cells, immunoliposome of Example 37 of 0.089 ng/mL; an EC50 (50% cell viability), Jurkat cells, secondary antibody-cross-linked MAB631 of 13.4 ng/mL; an EC50 Ab/IL, Jurkat cells, cross-linked MAB631 vs immunoliposome of Example 36 of 194. In addition, in assay [2], the EC50 Ab/IL, Jurkat cells, cross-linked MAB631 vs immunoliposome of Example 37 amounted to 150; the cell viability at 0.1 ng/ml, Jurkat cells, immunoliposome of Example 36 (% cell viability) was less than 50; the cell viability at 0.1 ng/ml, Jurkat cells, immunoliposome of Example 37 (% cell viability) is less than 50; the cell viability at 10 or 1000 ng/ml, Jurkat cells, immunoliposome of Example 36 (% cell viability) was less than 5. The substance also displayed a cell viability at 10 or 1000 ng/ml, Jurkat cells, immunoliposome of Example 37 (% cell viability) in assay [2] of less than 5.

Values taken from patent US20100209490A1.
